Values quoted from earlier work, collected in publication PMC4664810.
Read-outs that look alike come from different tables or passages of the source.

Key:
CD20 (Homo sapiens) [1] = molecular target: CD20 (Homo sapiens) (UniProt P11836)
CD20 (Homo sapiens) [2] = molecular target: CD20 (Homo sapiens) (UniProt P11836); remark: listed apart in the source

CD20 (Homo sapiens), sequence (P11836 whole entry): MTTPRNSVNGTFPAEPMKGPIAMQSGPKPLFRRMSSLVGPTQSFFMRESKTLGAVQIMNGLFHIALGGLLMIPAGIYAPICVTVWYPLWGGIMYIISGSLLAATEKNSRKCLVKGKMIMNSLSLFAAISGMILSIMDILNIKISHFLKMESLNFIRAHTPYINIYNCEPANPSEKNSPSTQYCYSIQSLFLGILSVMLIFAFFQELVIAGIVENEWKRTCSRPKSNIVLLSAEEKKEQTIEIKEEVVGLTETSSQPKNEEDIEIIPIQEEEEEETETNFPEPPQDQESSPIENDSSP

| Substance | Kd (CD20 (Homo sapiens) [1]) [nM] | Kd (CD20 (Homo sapiens) [2]) [nM] |
| --- | --- | --- |
| rituximab | 5.45 | – |
| ofatumumab | – | 4.76 |
